Experimental data as given in PMC11726873.
One block for each binder: values may come before it.

Biological target: PALB2 construct (UniProt Q86YC2)
Experiment: ITC; BRCA1 (control 0.6 mM, 17 injections; modified 0.255 mM, 32 injections) titrated into PALB2 at 0.06 mM in the cell; 25 °C; 50 mM NaCl, 25 mM sodium phosphate, pH 6.5; single binding site model

UniProt Q86YC2, sequence (Q86YC2 whole entry): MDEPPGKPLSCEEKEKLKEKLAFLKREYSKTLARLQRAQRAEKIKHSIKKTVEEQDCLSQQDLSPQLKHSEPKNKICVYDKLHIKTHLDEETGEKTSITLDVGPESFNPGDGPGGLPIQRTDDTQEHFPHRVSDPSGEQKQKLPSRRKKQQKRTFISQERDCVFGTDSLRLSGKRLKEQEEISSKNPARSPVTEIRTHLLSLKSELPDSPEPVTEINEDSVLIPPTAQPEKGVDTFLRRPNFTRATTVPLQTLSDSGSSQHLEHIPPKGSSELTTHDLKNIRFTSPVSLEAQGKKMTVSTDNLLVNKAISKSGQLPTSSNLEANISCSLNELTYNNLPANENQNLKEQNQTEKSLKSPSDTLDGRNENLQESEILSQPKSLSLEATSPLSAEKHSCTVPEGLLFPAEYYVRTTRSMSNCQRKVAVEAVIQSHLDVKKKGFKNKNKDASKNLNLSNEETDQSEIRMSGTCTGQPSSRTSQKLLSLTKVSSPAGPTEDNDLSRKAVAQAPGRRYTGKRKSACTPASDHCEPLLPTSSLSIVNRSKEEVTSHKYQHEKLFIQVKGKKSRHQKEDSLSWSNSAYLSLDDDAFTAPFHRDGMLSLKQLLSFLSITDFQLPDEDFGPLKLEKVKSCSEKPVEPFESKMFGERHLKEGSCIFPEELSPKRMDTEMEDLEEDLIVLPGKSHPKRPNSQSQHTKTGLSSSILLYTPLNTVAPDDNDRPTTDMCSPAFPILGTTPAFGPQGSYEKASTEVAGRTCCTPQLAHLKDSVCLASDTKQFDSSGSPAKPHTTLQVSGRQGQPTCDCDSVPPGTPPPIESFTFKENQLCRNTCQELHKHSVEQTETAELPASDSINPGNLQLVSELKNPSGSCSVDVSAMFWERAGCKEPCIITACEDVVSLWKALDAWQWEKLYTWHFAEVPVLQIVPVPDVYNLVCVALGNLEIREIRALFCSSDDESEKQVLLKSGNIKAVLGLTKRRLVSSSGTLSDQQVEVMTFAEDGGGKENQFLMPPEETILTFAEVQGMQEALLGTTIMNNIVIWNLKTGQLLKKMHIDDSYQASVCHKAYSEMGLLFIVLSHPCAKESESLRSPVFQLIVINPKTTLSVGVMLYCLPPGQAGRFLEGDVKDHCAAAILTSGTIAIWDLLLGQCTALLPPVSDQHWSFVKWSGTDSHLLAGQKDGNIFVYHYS

Kd: 3 µM
B1: BRCA1 disordered PALB2-binding domain, residues 1377-1426, modified with dichlorotriazine 1 (indole-labeled) (domain or fragment)
chain: GPGSSVSEDCSGLSSQSDILTTQQRDTMQHNLIKLQQEMAELEAVLEQHGSQPS
modifications: a single 272 Da indole incorporation from dichlorotriazine 1; site not determined by MS/MS, the single lysine (residue 1406 in BRCA1) is the intended site

Kd: 4.1 µM
B2: BRCA1 disordered PALB2-binding domain, residues 1377-1426, control (unmodified) preparation (domain or fragment)
chain: B1 chain
